Assay results from the supplement of paper PMC10567573.

B1: JUNB (parent)
chain: FVKALDDLHKMNHVTPPNVSLGAT
B2: MGC27345 (parent)
chain: KYMPHLCQDSSGEVSCQCQLHPPR

Variants of: B1
Experiment: protein stability index of a GFP-peptide fusion (GPS, HEK-293T) (PSI 1-6); higher = more stable
Details: c terminus: a fixed tail appended
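Also: lentivirally expressed fusions sorted by FACS into six bins by GFP to DsRed ratio, PSI derived from sequencing read proportions per bin multiplied by bin number.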

| Variant | protein stability index |
| --- | --- |
| H9Q | 1.34 |
| H9E | 2.08 |
| H9G | 1.97 |
| L21C | 1.38 |
| K10V | 1.48 |
| K10R | 2.77 |
| V19S | 1.63 |
| V19N | 1.98 |
| F1Q | 3.52 |
| F1D | 4.6 |
| F1C | 2.61 |
| K3I | 1.98 |
| L5C | 1.87 |
| L5T | 2.22 |
| L5W | 3.57 |
| N12R | 1.56 |
| N12M | 1.65 |
| D6I | 2.58 |
| D6S | 1.46 |
| P16L | 1.53 |
| L8F | 2.59 |
| L8E | 2.31 |
| N18G | 1.73 |
| A23F | 1.41 |
| T15D | 1.9 |
| D7K | 1.8 |
| A4S | 2.03 |

Variants of: B2
Experiment: as above
Details: c terminus: a fixed tail appended

| Variant | protein stability index |
| --- | --- |
| H21T | 3.51 |
| H21R | 1.69 |
| H21D | 2.6 |
| H21S | 2.86 |
| H21C | 2.65 |
| H21P | 3.07 |
| H21F | 1.63 |
| H21Y | 2.06 |
| H21E | 3.34 |
| H21A | 3.18 |
| H21K | 2.7 |
| H21N | 2.31 |
| H21Q | 4.58 |
| H21I | 2.75 |
| H21L | 1.51 |
| L20S | 2.49 |
| L20Y | 2.05 |
| L20T | 2.12 |
| L20C | 2.44 |
| L20N | 2.56 |
| L20P | 3.73 |
| L20M | 2.73 |
| L20A | 2.37 |
| L20H | 3.1 |

| Variant | protein stability index |
| --- | --- |
| L20Q | 2.34 |
| L20F | 2.13 |
| L20V | 2.17 |
| L20E | 3.1 |
| L20K | 2.04 |
| L20G | 1.85 |
| L20W | 1.82 |
| L20I | 2.79 |
| L20D | 2.73 |
| Q17S | 1.33 |
| Q17T | 1.81 |
| Q17N | 1.47 |
| Q17K | 3.52 |
| Q17L | 2.17 |
| Q17D | 2.83 |
| Q17Y | 1.76 |
| Q17G | 1.62 |
| Q17M | 3.13 |
| Q17I | 1.76 |
| Q17V | 2.44 |
| Q17P | 2.21 |
| Q17F | 2.21 |
| Q17H | 1.74 |
| Q17W | 2.6 |

| Variant | protein stability index |
| --- | --- |
| Q17R | 2.35 |
| P22M | 2.51 |
| P22Q | 2.64 |
| P22W | 2.05 |
| P22T | 2.49 |
| P22S | 2.55 |
| P22H | 3.14 |
| P22Y | 2.45 |
| P22C | 2.47 |
| P22E | 3.09 |
| P22D | 4.1 |
| P22G | 3.29 |
| P22R | 2.62 |
| P22V | 2.17 |
| P22N | 3.16 |
| P22F | 2.41 |
| P22I | 2.03 |
| P22K | 2.43 |
| P22A | 2.66 |
| P22L | 2.73 |
| P23T | 2.02 |
| P23D | 3.71 |
| P23H | 2.66 |
| P23G | 3.38 |

| Variant | protein stability index |
| --- | --- |
| P23L | 2.38 |
| P23M | 2.2 |
| P23F | 2.32 |
| P23K | 2.35 |
| P23C | 3.96 |
| P23W | 2.34 |
| P23E | 3.48 |
| P23Q | 2.29 |
| P23V | 2.87 |
| P23N | 2.85 |
| P23Y | 2.07 |
| P23S | 2.47 |
| P23I | 2.24 |
| P23A | 2.34 |
| R24I | 3.75 |
| R24E | 4.59 |
| R24D | 4.59 |
| R24K | 3.26 |
| R24N | 4.28 |
| R24F | 3.39 |
| R24A | 3.79 |
| R24G | 4.32 |
| R24C | 3.86 |
| R24H | 4.04 |

| Variant | protein stability index |
| --- | --- |
| R24V | 3.23 |
| R24L | 3.85 |
| R24Q | 4.05 |
| R24Y | 3.87 |
| R24W | 2.89 |
| R24M | 3.31 |
| R24T | 3.99 |
| R24S | 4.29 |
| C18D | 3.65 |
| C18M | 2.54 |
| C18W | 2.44 |
| C18R | 3 |
| C18P | 3.55 |
| C18T | 3.35 |
| C18L | 3.35 |
| C18A | 3.46 |
| C18H | 2.94 |
| C18Q | 3.6 |
| C18Y | 1.69 |
| C18I | 3.34 |
| C18E | 3.62 |
| C18N | 4.32 |
| C18S | 3.79 |
| C18F | 1.93 |

| Variant | protein stability index |
| --- | --- |
| C18K | 3.44 |
| C18V | 3.48 |
| Q19G | 2.81 |
| Q19E | 3.08 |
| Q19A | 2.45 |
| Q19T | 2.36 |
| Q19S | 2.5 |
| Q19M | 2.13 |
| Q19C | 2.07 |
| Q19H | 1.52 |
| Q19W | 2.48 |
| Q19F | 2.71 |
| Q19N | 2.63 |
| Q19V | 1.96 |
| Q19P | 3.84 |
| Q19Y | 2.71 |
| Q19K | 2.07 |
| Q19L | 2.12 |
| Q19I | 2.15 |
| Q19D | 2.25 |
